The values that follow come from the Human Domainome abundance scans (Beltran et al. 2025).

± gives the uncertainty stated by the source.

To fix the notation:
B1: Zinc finger protein ZIC 2, residues 250 to 295; numbered along this chain, O95409 (parent)
chain: QCIKQELICKWIDPEQLSNPKKSCNKTFSTMHELVTHVSVEHVGGP
B2: Homeobox protein SIX3, residues 212 to 262; numbered along this chain, O95343 (parent)
chain: CFKERTRSLLREWYLQDPYPNPSKKRELAQATGLTPTQVGNWFKNRRQRDR

Variants of B1 are the subject of the first series. Kind of series: abundance fitness (aPCA) (normalised: wild type 0, dead -1); higher = more abundant; growth selection in yeast, the domain comes from the species named. Conditions: Homo sapiens.
With QCIKQELICKWIDPEQLSWPKKSCNKTFSTMHELVTHVSVEHVGGP [N19W], the abundance fitness was -0.74 ± 0.1.

Regarding QCIPQELICKWIDPEQLSNPKKSCNKTFSTMHELVTHVSVEHVGGP [K4P], the abundance fitness is -0.236 ± 0.13.

For the variant QCIKQELICKWIDPEQLSNPKLSCNKTFSTMHELVTHVSVEHVGGP [K22L], the abundance fitness is -0.089 ± 0.086.

For the variant QCIKQELICKWIDPEQLSNPKKSCNKTFSWMHELVTHVSVEHVGGP [T30W], the abundance fitness was -0.661 ± 0.12.

On to QCIKQELICKWIDPMQLSNPKKSCNKTFSTMHELVTHVSVEHVGGP [E15M], for which the abundance fitness is -0.079 ± 0.1.

Consider QCIKQELICKWIDPEQLSNPKKLCNKTFSTMHELVTHVSVEHVGGP [S23L], for which the abundance fitness is 0.282 ± 0.09.

For QCIKQELICKWIDPEQLSNLKKSCNKTFSTMHELVTHVSVEHVGGP [P20L], the abundance fitness was -0.184 ± 0.092.

On to QCIKQELICKWIDPEQLSNPKKSCNKTFSTWHELVTHVSVEHVGGP [M31W], for which the abundance fitness is -0.602 ± 0.096.

Regarding QCIKQELICKWIDPEQLSNPKKSCNKTFSTMHEGVTHVSVEHVGGP [L34G], the abundance fitness was -0.618 ± 0.086.

The variants in the next series derive from B2. The description is as above. As to conditions: Homo sapiens.
As to CFKERTRSLLREWYLQDPYPNPSKKRELAQATGLTPTQVGNWFKNRPQRDR [R47P], the abundance fitness is -0.532 ± 0.074.

Turning to CFKERTRSLLREWYLQDPYPNPSKKRELAQATGLTPTQVGNWFKNRHQRDR [R47H], the abundance fitness was -0.617 ± 0.092.

For the variant CFKERTRSLLREWYLQDPYPNPSKKRELAQATGLTPTQVGNWFKNRYQRDR [R47Y], the abundance fitness is -0.945 ± 0.12.

In the case of CFKERTRSLLREWYLQDPYPNPSKKRELAQATGLTPTQVGNWFKNRMQRDR [R47M], the abundance fitness was -0.975 ± 0.11.

In the case of CFKERTRSLLREWYLQDPYPNPSKKRELAQATGLTPTQVGNWFKNRSQRDR [R47S], the abundance fitness is -0.723 ± 0.064.

Turning to CFKERTRSLLREWYLQDPYPNPSKKRELAQATGLTPTQVGNWFKNRVQRDR [R47V], the abundance fitness is -0.586 ± 0.051.

For the variant CFKERTRSLLREWYLQDPYPNPSKKRELAQATGLTPTQVGNWFKNRNQRDR [R47N], the abundance fitness was -0.552 ± 0.11.

Consider CFKERTRSLLREWYLQDPYPNPSKKRELAQATGLTPTQVGNWFKNRTQRDR [R47T], for which the abundance fitness is -0.84 ± 0.056.

In the case of CFKERTRSLLREWYLQDPYPNPSKKRELAQATGLTPTQVGNWFKNRDQRDR [R47D], the abundance fitness is -0.654 ± 0.17.

Consider CFKERTRSLLREWYLQDPYPNPSKKRELAQATGLTPTQVGNWFKNRKQRDR [R47K], for which the abundance fitness was -0.591 ± 0.13.

With CFKERTRSLLREWYLQDPYPNPSKKRELAQATGLTPTQVGNWFKNRAQRDR [R47A], the abundance fitness was -0.465 ± 0.059.

Take CFKERTRSLLREWYLQDPYPNPSKKRELAQATGLTPTQVGNWFKNRWQRDR [R47W]: the abundance fitness was -0.641 ± 0.14.

Regarding CFKERTRSLLREWYLQDPYPNPSKKRELAQATGLTPTQVGNWFKNRCQRDR [R47C], the abundance fitness was -0.804 ± 0.13.

For the variant CFKERTRSLLREWYLQDPYPNPSKKRELAQATGLTPTQVGNWFKNRGQRDR [R47G], the abundance fitness is -0.898 ± 0.081.

For the variant CFKERTRSLLREWYLQDPYPNPSKKRELAQATGLTPTQVGNWFKNRIQRDR [R47I], the abundance fitness was -0.613 ± 0.093.

As to CFKERTRSLLREWYLQDPYPNPSKKRELAQATGLTPTQVGNWFKNRQQRDR [R47Q], the abundance fitness was -0.473 ± 0.052.

Regarding CFKERTRSLLREWYLQDPYPNPSKKRELAQATGLTPTQVGNWFKNRFQRDR [R47F], the abundance fitness is -0.548 ± 0.14.

As to CFKERTRSLLREWYLQDPYPNPSKKRELAQATGLTPTQVGNWFKNPRQRDR [R46P], the abundance fitness was -0.611 ± 0.2.

As for CFKERTRSLLREWYLQDPYPNPSKKRELAQATGLTPTQVGNWFKNKRQRDR [R46K], the abundance fitness worked out at 0.144 ± 0.097.

On to CFKERTRSLLREWYLQDPYPNPSKKRELAQATGLTPTQVGNWFKNYRQRDR [R46Y], for which the abundance fitness is -0.504 ± 0.14.

As for CFKERTRSLLREWYLQDPYPNPSKKRELAQATGLTPTQVGNWFKNMRQRDR [R46M], the abundance fitness was -0.182 ± 0.061.

For CFKERTRSLLREWYLQDPYPNPSKKRELAQATGLTPTQVGNWFKNIRQRDR [R46I], the abundance fitness was -0.748 ± 0.25.

CFKERTRSLLREWYLQDPYPNPSKKRELAQATGLTPTQVGNWFKNWRQRDR [R46W]: the abundance fitness was -0.817 ± 0.14.

Take CFKERTRSLLREWYLQDPYPNPSKKRELAQATGLTPTQVGNWFKNGRQRDR [R46G]: the abundance fitness was -0.937 ± 0.058.

With CFKERTRSLLREWYLQDPYPNPSKKRELAQATGLTPTQVGNWFKNFRQRDR [R46F], the abundance fitness was -0.63 ± 0.083.

For the variant CFKERTRSLLREWYLQDPYPNPSKKRELAQATGLTPTQVGNWFKNNRQRDR [R46N], the abundance fitness was -0.456 ± 0.24.

With CFKERTRSLLREWYLQDPYPNPSKKRELAQATGLTPTQVGNWFKNDRQRDR [R46D], the abundance fitness was -0.67 ± 0.072.

Consider CFKERTRSLLREWYLQDPYPNPSKKRELAQATGLTPTQVGNWFKNTRQRDR [R46T], for which the abundance fitness is -0.117 ± 0.073.

Consider CFKERTRSLLREWYLQDPYPNPSKKRELAQATGLTPTQVGNWFKNSRQRDR [R46S], for which the abundance fitness is -0.326 ± 0.083.

For CFKERTRSLLREWYLQDPYPNPSKKRELAQATGLTPTQVGNWFKNQRQRDR [R46Q], the abundance fitness was -0.045 ± 0.046.

On to CFKERTRSLLREWYLQDPYPNPSKKRELAQATGLTPTQVGNWFKNERQRDR [R46E], for which the abundance fitness is -0.167 ± 0.13.

For the variant CFKERTRSLLREWYLQDPYPNPSKKRELAQATGLTPTQVGNWFKNHRQRDR [R46H], the abundance fitness was -0.269 ± 0.14.

In the case of CFKERTRSLLREWYLQDPYPNPSKKRELAQATGLTPTQVGNWFKNVRQRDR [R46V], the abundance fitness is -0.635 ± 0.086.

Turning to CFKERTRSLLREWYLQDPYPNPSKKRELAQATGLTPTQVGNWFKNLRQRDR [R46L], the abundance fitness is -0.531 ± 0.058.

Regarding CFKERTRSLLREWYLQDPYPNPSKKRELAQATGLTPTQVGNWFKNRRDRDR [Q48D], the abundance fitness is -0.37 ± 0.061.

As to CFKERTRSLLREWYLQDPYPNPSKKRELAQATGLTPTQVGNWFKNRRHRDR [Q48H], the abundance fitness was -0.042 ± 0.18.

For the variant CFKERTRSLLREWYLQDPYPNPSKKRELAQATGLTPTQVGNWFKNRRPRDR [Q48P], the abundance fitness is -0.799 ± 0.24.

Turning to CFKERTRSLLREWYLQDPYPNPSKKRELAQATGLTPTQVGNWFKNRRRRDR [Q48R], the abundance fitness amounted to 0.397 ± 0.049.

CFKERTRSLLREWYLQDPYPNPSKKRELAQATGLTPTQVGNWFKNRRYRDR [Q48Y]: the abundance fitness is -0.055 ± 0.13.

On to CFKERTRSLLREWYLQDPYPNPSKKRELAQATGLTPTQVGNWFKNRRNRDR [Q48N], for which the abundance fitness is -0.166 ± 0.12.

As for CFKERTRSLLREWYLQDPYPNPSKKRELAQATGLTPTQVGNWFKNRRARDR [Q48A], the abundance fitness came to 0.028 ± 0.069.

Regarding CFKERTRSLLREWYLQDPYPNPSKKRELAQATGLTPTQVGNWFKNRRERDR [Q48E], the abundance fitness is -0.267 ± 0.12.
